Source: publication PMC6277172 (Protein Engineering, Design and Selection, 2018)

Target: N-terminal domain of MDM2 (M6-N125) (UniProt Q00987 6-125)
Assay: fluorescence polarisation

N-terminal domain of MDM2 (M6-N125), sequence (Q00987 6-125): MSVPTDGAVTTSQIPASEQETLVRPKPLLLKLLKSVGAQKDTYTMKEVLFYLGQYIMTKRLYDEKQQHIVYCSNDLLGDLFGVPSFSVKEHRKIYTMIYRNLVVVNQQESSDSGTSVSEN

B1: FAM labeled 12-1 peptide (peptide)
peptide: {FAM}-RFMDYWEGL-NH2
- binding result: binds
